Drawing on paper doi:10.1101/2024.03.15.585200, this text covers stoichiometry N for one substance.

This assay has as its target Toxoplasma gondii ABCB7 homolog (TGGT1_269000) (Toxoplasma gondii). Nature of the assay: native gel or EMSA.

In the case of “Toxoplasma gondii ABCB7 homolog (TGGT1_269000) (natural protein)”, the stoichiometry N came to 2.
